Laboratory results taken from patent publication US20230210927A1.

Molecular target: E1B55K protein (adenovirus early region 1B-55 kDa) (adenovirus type 5) (UniProt P03243)
Test: cell-based or functional assay

Sequence of UniProt P03243 (P03243 whole entry): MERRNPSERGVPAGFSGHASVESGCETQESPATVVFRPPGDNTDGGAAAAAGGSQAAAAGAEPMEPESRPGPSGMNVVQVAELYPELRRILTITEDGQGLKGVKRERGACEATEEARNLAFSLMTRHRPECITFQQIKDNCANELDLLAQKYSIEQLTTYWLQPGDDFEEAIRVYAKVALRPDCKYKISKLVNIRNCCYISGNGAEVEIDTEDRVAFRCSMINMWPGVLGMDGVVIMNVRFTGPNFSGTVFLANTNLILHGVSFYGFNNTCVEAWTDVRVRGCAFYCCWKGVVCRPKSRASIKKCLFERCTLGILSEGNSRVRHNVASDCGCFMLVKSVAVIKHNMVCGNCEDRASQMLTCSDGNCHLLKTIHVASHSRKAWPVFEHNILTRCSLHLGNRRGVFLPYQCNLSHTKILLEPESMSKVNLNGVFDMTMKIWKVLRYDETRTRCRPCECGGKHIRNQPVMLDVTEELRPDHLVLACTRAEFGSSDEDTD

For E4orf6 protein (adenovirus), the luminescence intensity due to luciferase activity (pGL2-p53 promoter, Dual-Luciferase Reporter Assay) in the MSC-TERT-tetoneE1B55K cell line with doxycycline; 4-fold increase with E1B55K alone was under 1.5 fold.
